Results taken from patent US20240132578A1.

What was measured:
Experiment in all cases: cell-based or functional assay
[1] = target: HIV-1 Env of isolate MGRM-C-006 (subtype C) (HIV-1)
[2] = target: HIV-1 Env of isolate MGRM-G-028 (subtype G), on pseudovirus (HIV-1)
[3] = target: HIV-1 Env of isolate MGRM-G-024 (subtype G), on pseudovirus (HIV-1)
[4] = target: HIV-1 Env of isolate MGRM-G-013 (subtype G), on pseudovirus (HIV-1)
[5] = target: HIV-1 Env of isolate MGRM-G-006 (subtype G), on pseudovirus (HIV-1)
[6] = target: HIV-1 Env of isolate MGRM-C-002 (subtype C) (HIV-1)
[7] = target: HIV-1 Env of isolate MGRM-C-005 (subtype C) (HIV-1)
[8] = target: HIV-1 Env of isolate MGRM-C-012 (subtype C) (HIV-1)
[9] = target: HIV-1 Env of isolate MGRM-C-026 (subtype C) (HIV-1)
[10] = target: HIV-1 Env of isolate MGRM-G-009 (subtype G), on pseudovirus (HIV-1)
[11] = target: HIV-1 Env of isolate MGRM-C-004 (subtype C) (HIV-1)
[12] = target: HIV-1 Env of isolate MGRM-G-025 (subtype G), on pseudovirus (HIV-1)
[13] = target: HIV-1 Env of isolate MGRM-C-020 (subtype C) (HIV-1)
[14] = target: HIV-1 Env of isolate MGRM-C-028 (subtype C) (HIV-1)
[15] = target: HIV-1 Env of isolate MGRM-G-019 (subtype G), on pseudovirus (HIV-1)
[16] = target: HIV-1 Env of isolate MGRM-C-017 (subtype C) (HIV-1)
[17] = target: HIV-1 Env of isolate MGRM-C-019 (subtype C) (HIV-1)
[18] = target: HIV-1 Env of isolate MGRM-C-013 (subtype C) (HIV-1)
[19] = target: HIV-1 Env of isolate MGRM-C-014 (subtype C) (HIV-1)
[20] = target: HIV-1 Env of isolate MGRM-C-008 (subtype C) (HIV-1)
[21] = target: HIV-1 Env of isolate MGRM-C-009 (subtype C) (HIV-1)
[22] = target: HIV-1 Env of isolate MGRM-C-025 (subtype C) (HIV-1)
[23] = target: aMLV envelope, on pseudovirus (negative control)
[24] = target: HIV-1 Env of isolate MGRM-C-024 (subtype C) (HIV-1)
[25] = target: HIV-1 Env of isolate MGRM-G-014 (subtype G), on pseudovirus (HIV-1)
[26] = target: HIV-1 Env of isolate MGRM-C-015 (subtype C) (HIV-1)
[27] = target: HIV-1 Env of isolate MGRM-G-015 (subtype G), on pseudovirus (HIV-1)
[28] = target: HIV-1 Env of isolate 93MW959 (subtype C) (HIV-1)
[29] = target: HIV-1 Env of isolate MGRM-G-004 (subtype G), on pseudovirus (HIV-1)
[30] = target: HIV-1 Env of isolate MGRM-C-022 (subtype C) (HIV-1)
[31] = target: HIV-1 Env of isolate 98IN022 (subtype C) (HIV-1)
[32] = target: HIV-1 Env of isolate MGRM-C-010 (subtype C) (HIV-1)
[33] = target: HIV-1 Env of isolate MGRM-G-011 (subtype G), on pseudovirus (HIV-1)
[34] = target: HIV-1 Env of isolate 97ZA012 (subtype C) (HIV-1)
[35] = target: HIV-1 Env of isolate MGRM-G-016 (subtype G), on pseudovirus (HIV-1)
[36] = target: HIV-1 Env of isolate MGRM-G-027 (subtype G), on pseudovirus (HIV-1)
[37] = target: HIV-1 Env of isolate MGRM-G-017 (subtype G), on pseudovirus (HIV-1)
[38] = target: HIV-1 Env of isolate MGRM-C-001 (subtype C) (HIV-1)
[39] = target: HIV-1 Env of isolate MGRM-G-001 (subtype G), on pseudovirus (HIV-1)
[40] = target: HIV-1 Env of isolate MGRM-C-023 (subtype C) (HIV-1)
[41] = target: HIV-1 Env of isolate MGRM-C-027 (subtype C) (HIV-1)
[42] = target: HIV-1 Env of isolate MGRM-C-007 (subtype C) (HIV-1)
[43] = target: HIV-1 MGRM-D-001 envelope glycoprotein (Env) on pseudovirus (HIV-1)
[44] = target: HIV-1 92UG005 envelope glycoprotein (Env) on pseudovirus (HIV-1)
[45] = target: HIV-1 JRFL envelope glycoprotein (Env) on pseudovirus (HIV-1)
[46] = target: HIV-1 92TH021 envelope glycoprotein (Env) on pseudovirus (HIV-1)
[47] = target: HIV-1 APV13 envelope glycoprotein (Env) on pseudovirus (HIV-1)
[48] = target: HIV-1 NL43 envelope glycoprotein (Env) on pseudovirus (HIV-1)
[49] = target: HIV-1 MGRM-A-010 envelope glycoprotein (Env) on pseudovirus (HIV-1)
[50] = target: HIV-1 MGRM-D-018 envelope glycoprotein (Env) on pseudovirus (HIV-1)
[51] = target: HIV-1 APV6 envelope glycoprotein (Env) on pseudovirus (HIV-1)
[52] = target: HIV-1 93IN905 envelope glycoprotein (Env) on pseudovirus (HIV-1)
[53] = target: HIV-1 MGRM-C-027 envelope glycoprotein (Env) on pseudovirus (HIV-1)
[54] = target: HIV-1 JRCSF envelope glycoprotein (Env) on pseudovirus (HIV-1) (UniProt P20871)
[55] = target: HIV-1 CMU02 envelope glycoprotein (Env) on pseudovirus (HIV-1)
[56] = target: HIV-1 92UG024 envelope glycoprotein (Env) on pseudovirus (HIV-1)
[57] = target: HIV-1 93UG077 envelope glycoprotein (Env) on pseudovirus (HIV-1)
[58] = target: HIV-1 MGRM-C-026 envelope glycoprotein (Env) on pseudovirus (HIV-1)
[59] = target: HIV-1 MGRM-C-028 envelope glycoprotein (Env) on pseudovirus (HIV-1)
[60] = target: HIV-1 APV17 envelope glycoprotein (Env) on pseudovirus (HIV-1)
[61] = target: HIV-1 94UG103 envelope glycoprotein (Env) on pseudovirus (HIV-1)
[62] = target: aMLV envelope protein on pseudovirus (negative control virus)
[63] = target: panel of 22 HIV-1 pseudoviruses of Table 52
[64] = target: HIV-1 MGRM-AG-005 envelope glycoprotein (Env) on pseudovirus (HIV-1)

B1: PGT-127 (antibody, V domains shown)
VH: QPQLQESGPGLVEASETLSLTCTVSGDSTGRCNYFWGWVRQPPGKGLEWIGSLSHCRSYYNTDWTYHNPSLKSRLTISLDTPKNQVFLRLTSVTAADTATYYCARFGGEVLVYRDWPKPAWVDLWGRGTLVVTVS
VL: QSALTQPPSASGSPGQSITISCTGTSNNFVSWYQQYPGKAPKLVIYEVNKRPSGVPDRFSGSKSGSTASLTVSGLQADDEGVYYCSSLVGNWDVIFGGGTKLTVL
- IC50 (µg/mL), pseudovirus neutralization [1]: 0.319 µg/mL
- IC50 (µg/mL), neutralization of pseudovirus [2]: 0.032 µg/mL
- IC50 (µg/mL), neutralization of pseudovirus [3]: > 50 µg/mL
- IC50 (µg/mL), neutralization of pseudovirus [4]: 7.7 µg/mL
- IC50 (µg/mL), neutralization of pseudovirus [5]: > 50 µg/mL
- IC50 (µg/mL), pseudovirus neutralization [6]: 0.057 µg/mL
- IC50 (µg/mL), pseudovirus neutralization [7]: 0.57 µg/mL
- IC50 (µg/mL), pseudovirus neutralization [8]: 1.07 µg/mL
- IC50 (µg/mL), pseudovirus neutralization [9]: 0.014 µg/mL
- IC50 (µg/mL), neutralization of pseudovirus [10]: > 50 µg/mL
- IC50 (µg/mL), pseudovirus neutralization [11]: 0.532 µg/mL
- IC50 (µg/mL), neutralization of pseudovirus [12]: 19.3 µg/mL
- IC50 (µg/mL), pseudovirus neutralization [13]: > 50 µg/mL
- IC50 (µg/mL), pseudovirus neutralization [14]: 7.57 µg/mL
- IC50 (µg/mL), neutralization of pseudovirus [15]: 0.429 µg/mL
- IC50 (µg/mL), pseudovirus neutralization [16]: 3.4 µg/mL
- IC50 (µg/mL), pseudovirus neutralization [17]: 0.017 µg/mL
- IC50 (µg/mL), pseudovirus neutralization [18]: > 50 µg/mL
- IC50 (µg/mL), pseudovirus neutralization [19]: > 50 µg/mL
- IC50 (µg/mL), pseudovirus neutralization [20]: > 50 µg/mL
- IC50 (µg/mL), pseudovirus neutralization [21]: > 50 µg/mL
- IC50 (µg/mL), pseudovirus neutralization [22]: > 50 µg/mL
- IC50 (µg/mL), neutralization of pseudovirus [23]: > 50 µg/mL
- IC50 (µg/mL), pseudovirus neutralization [24]: > 50 µg/mL
- IC50 (µg/mL), neutralization of pseudovirus [25]: 0.009 µg/mL
- IC50 (µg/mL), pseudovirus neutralization [26]: > 50 µg/mL
- IC50 (µg/mL), neutralization of pseudovirus [27]: > 50 µg/mL
- IC50 (µg/mL), pseudovirus neutralization [28]: 6.95 µg/mL
- IC50 (µg/mL), neutralization of pseudovirus [29]: > 50 µg/mL
- IC50 (µg/mL), pseudovirus neutralization [30]: 0.41 µg/mL
- IC50 (µg/mL), pseudovirus neutralization [31]: 19.2 µg/mL
- IC50 (µg/mL), pseudovirus neutralization [32]: > 50 µg/mL
- IC50 (µg/mL), neutralization of pseudovirus [33]: > 50 µg/mL
- IC50 (µg/mL), pseudovirus neutralization [34]: > 50 µg/mL
- IC50 (µg/mL), neutralization of pseudovirus [35]: > 50 µg/mL
- IC50 (µg/mL), neutralization of pseudovirus [36]: > 50 µg/mL
- IC50 (µg/mL), neutralization of pseudovirus [37]: > 50 µg/mL
- IC50 (µg/mL), pseudovirus neutralization [38]: > 50 µg/mL
- IC50 (µg/mL), neutralization of pseudovirus [39]: 0.113 µg/mL
- IC50 (µg/mL), pseudovirus neutralization [40]: 1.08 µg/mL
- IC50 (µg/mL), pseudovirus neutralization [41]: > 50 µg/mL
- IC50 (µg/mL), pseudovirus neutralization [42]: > 50 µg/mL

B2: PGT-136 (5329_C19; 5366_P21) (antibody, V domains shown)
VH: QLQLQESGPGLVKPSETLSLTCTVSGGSMRGTDWGENDFHYGWIRQSSAKGLEWIGSIHWRGRTTHYKTSFRSRATLSIDTSNNRFSLTFSFVTAADTAVYYCARHKYHDIFRVVPVAGWFDPWGQGLLVTVSS
VL: EIVMTQSPPTLSVSPGETATLSCRASQNVKNNLAWYQLKPGQAPRLLIFDASSRAGGIPDRFSGSGYGTDFTLTVNSVQSEDFGDYFCQQYEEWPRTFGQGTKVDIK
- IC50, pseudovirus neutralization [43]: > 10 µg/mL
- IC50, pseudovirus neutralization [44]: > 10 µg/mL
- IC50, pseudovirus neutralization [45]: > 10 µg/mL
- IC50, pseudovirus neutralization [46]: > 10 µg/mL
- IC50, pseudovirus neutralization [47]: > 10 µg/mL
- IC50, pseudovirus neutralization [48]: > 10 µg/mL
- IC50, pseudovirus neutralization [49]: > 10 µg/mL
- IC50, pseudovirus neutralization [50]: > 10 µg/mL
- IC50, pseudovirus neutralization [51]: > 10 µg/mL
- IC50, pseudovirus neutralization [52]: 0.0135 µg/mL
- IC50, pseudovirus neutralization [53]: > 10 µg/mL
- IC50, pseudovirus neutralization [54]: > 10 µg/mL
- IC50, pseudovirus neutralization [55]: > 10 µg/mL
- IC50, pseudovirus neutralization [56]: 0.0915 µg/mL
- IC50, pseudovirus neutralization [57]: > 10 µg/mL
- IC50, pseudovirus neutralization [58]: 6.5 ng/mL
- IC50, pseudovirus neutralization [59]: > 10 µg/mL
- IC50, pseudovirus neutralization [60]: > 10 µg/mL
- IC50, pseudovirus neutralization [61]: > 10 µg/mL
- IC50, pseudovirus neutralization [62]: > 10 µg/mL
- % neutralized [63]: 18%
- median IC50, pseudovirus neutralization [63]: 0.05 µg/mL
- IC50, pseudovirus neutralization [64]: > 10 µg/mL

B3: PGT-135 (5343_B08; 5344_E16) (antibody, V domains shown)
VH: QLQMQESGPGLVKPSETLSLSCTVSGDSIRGGEWGDKDYHWGWVRHSAGKGLEWIGSIHWRGTTHYKESLRRRVSMSIDTSRNWFSLRLASVTAADTAVYFCARHRHHDVFMLVPIAGWFDVWGPGVQVTVSS
VL: EIVMTQSPDTLSVSPGETVTLSCRASQNINKNLAWYQYKPGQSPRLVIFETYSKIAAFPARFVASGSGTEFTLTINNMQSEDVAVYYCQQYEEWPRTFGQGTKVDIK
- IC50, pseudovirus neutralization [43]: > 10 µg/mL
- IC50, pseudovirus neutralization [44]: > 10 µg/mL
- IC50, pseudovirus neutralization [45]: > 10 µg/mL
- IC50, pseudovirus neutralization [46]: > 10 µg/mL
- IC50, pseudovirus neutralization [47]: 0.545 µg/mL
- IC50, pseudovirus neutralization [48]: 6.79 µg/mL
- IC50, pseudovirus neutralization [49]: > 10 µg/mL
- IC50, pseudovirus neutralization [50]: 0.0433 µg/mL
- IC50, pseudovirus neutralization [51]: > 10 µg/mL
- IC50, pseudovirus neutralization [52]: 0.0183 µg/mL
- IC50, pseudovirus neutralization [53]: > 10 µg/mL
- IC50, pseudovirus neutralization [54]: 0.113 µg/mL
- IC50, pseudovirus neutralization [55]: > 10 µg/mL
- IC50, pseudovirus neutralization [56]: 0.0139 µg/mL
- IC50, pseudovirus neutralization [57]: > 10 µg/mL
- IC50, pseudovirus neutralization [58]: 12.3 ng/mL
- IC50, pseudovirus neutralization [59]: 2.16 µg/mL
- IC50, pseudovirus neutralization [60]: > 10 µg/mL
- IC50, pseudovirus neutralization [61]: > 10 µg/mL
- IC50, pseudovirus neutralization [62]: > 10 µg/mL
- % neutralized [63]: 54%
- median IC50, pseudovirus neutralization [63]: 0.11 µg/mL
- IC50, pseudovirus neutralization [64]: > 10 µg/mL
